Source: the supplement of paper PMC10567573

B1: CD69 (parent)
chain: FVAENSSLHPESGQENDATSPHFS
B2: ZNF8 (parent)
chain: RIHTGERPYMCKECGKAFSQNSSL

Variants of: B1
Assay: protein stability index of a GFP-peptide fusion (GPS, HEK-293T) (PSI 1-6); higher = more stable
Details: c terminus: a fixed tail appended
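Also: lentivirally expressed fusions sorted by FACS into six bins by GFP to DsRed ratio, PSI derived from sequencing read proportions per bin multiplied by bin number.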

| Variant | protein stability index |
| --- | --- |
| H22D | 3.79 |
| H22F | 1.66 |
| H22R | 3.18 |
| H22G | 3.33 |
| H22Y | 1.72 |
| H22A | 3.21 |
| H22S | 2.86 |
| H22M | 2.71 |
| H22K | 3.24 |
| H22Q | 3.76 |
| H22E | 3.82 |
| H22I | 2.45 |
| H22W | 2.72 |
| H22T | 3.11 |
| H22V | 3.54 |
| H22N | 3.21 |
| H22L | 2.64 |
| H22P | 3.19 |
| H22C | 2.65 |
| A18F | 2.67 |
| A18K | 2.61 |
| A18L | 2.85 |
| A18V | 3.22 |
| A18Q | 3.53 |
| A18Y | 2.23 |

| Variant | protein stability index |
| --- | --- |
| A18D | 3.22 |
| A18N | 3.07 |
| A18M | 2.73 |
| A18T | 2.79 |
| A18S | 2.91 |
| A18H | 2.45 |
| A18P | 3.19 |
| A18G | 3.03 |
| A18W | 2.24 |
| A18I | 2.71 |
| A18E | 3.87 |
| A18C | 2.9 |
| A18R | 2.57 |
| F23G | 3.58 |
| F23P | 3.37 |
| F23T | 3.61 |
| F23V | 3.59 |
| F23I | 3.46 |
| F23Q | 3.8 |
| F23S | 4.12 |
| F23K | 4.07 |
| F23R | 3.22 |
| F23Y | 3.09 |
| F23C | 3.19 |
| F23L | 3.55 |

| Variant | protein stability index |
| --- | --- |
| F23N | 3.8 |
| F23M | 3.56 |
| F23A | 3.55 |
| F23D | 4.53 |
| F23E | 4.17 |
| F23H | 3.56 |
| F23W | 2.02 |
| P10T | 3.13 |
| P10Q | 3.45 |
| P10R | 2.56 |
| P10S | 2.52 |
| P10Y | 3.15 |
| P10V | 3.22 |
| P10W | 2.43 |
| S20Q | 3.15 |
| S20G | 3.17 |
| S20E | 3.75 |
| S20V | 2.68 |
| S20P | 2.54 |
| S20M | 2.78 |
| S20T | 3.12 |
| S20Y | 2.11 |
| S20H | 2.5 |
| S20N | 2.71 |
| S20F | 2.32 |

| Variant | protein stability index |
| --- | --- |
| S20D | 4.01 |
| S20A | 3.16 |
| S20K | 2.71 |
| S20R | 2.45 |
| S20W | 2.09 |
| S20I | 3.02 |
| S20L | 3.02 |
| S20C | 2.78 |
| S24M | 2.09 |
| S24L | 3.04 |
| S24E | 3.75 |
| S24K | 2.91 |
| S24Y | 2.38 |
| S24G | 3.13 |
| S24N | 2.92 |
| S24R | 1.77 |
| S24C | 2.5 |
| S24F | 2.27 |
| S24I | 2.19 |
| S24A | 3.55 |
| S24V | 2.77 |
| S24D | 3.9 |
| S24Q | 2.78 |
| S24T | 3.27 |
| S24P | 2.57 |

| Variant | protein stability index |
| --- | --- |
| S24H | 3.55 |
| G13W | 1.97 |
| G13R | 2.49 |
| G13F | 2.69 |
| G13I | 2.61 |
| G13D | 3.4 |
| G13P | 3.32 |
| G13M | 3.38 |
| G13L | 2.49 |
| G13Q | 3.09 |
| G13A | 2.69 |
| G13T | 3.59 |
| G13N | 3.33 |
| G13V | 3.21 |
| G13K | 3.24 |
| G13S | 3.31 |
| G13C | 2.89 |
| G13Y | 3.06 |
| G13H | 2.46 |
| G13E | 3.41 |
| D17V | 2.36 |
| D17C | 2.31 |
| D17S | 2.73 |
| D17M | 2.46 |
| D17T | 2.54 |

| Variant | protein stability index |
| --- | --- |
| D17H | 2.97 |
| D17L | 2.56 |
| D17K | 2.2 |
| D17A | 3.79 |
| D17N | 2.95 |
| D17W | 1.92 |
| D17Y | 2.18 |
| D17E | 2.82 |
| D17Q | 2.32 |
| D17I | 2.69 |
| D17G | 2.65 |
| D17P | 2.76 |
| D17R | 2.24 |
| D17F | 2.05 |
| E11W | 2.05 |
| E11Y | 2.22 |
| E11Q | 2.48 |
| E11D | 3.22 |
| E11A | 2.51 |
| E11N | 3.21 |
| E11P | 2.55 |
| E11L | 1.6 |
| E11K | 2.35 |
| E11H | 2.36 |
| E11V | 2.38 |

| Variant | protein stability index |
| --- | --- |
| E11I | 2.39 |
| E11C | 1.96 |
| E11F | 1.82 |
| E11R | 2.12 |
| E11G | 2.46 |
| E11S | 2.52 |
| E11M | 2.36 |
| E11T | 2.84 |
| E15P | 2.32 |
| E15N | 2.6 |
| E15Q | 3.05 |
| E15C | 2.57 |
| E15L | 2.12 |
| E15G | 2.59 |
| E15A | 2.88 |
| E15Y | 2.08 |
| E15F | 1.91 |
| E15I | 2.51 |
| E15K | 2.76 |
| E15T | 2.78 |
| E15D | 3.06 |
| E15M | 2.83 |
| E15V | 2.67 |
| E15S | 2.11 |
| E15R | 2.19 |

| Variant | protein stability index |
| --- | --- |
| E15H | 2.76 |
| E15W | 1.95 |
| P21R | 2.56 |
| P21C | 2.64 |
| P21T | 2.86 |
| P21F | 2.91 |
| P21A | 2.62 |
| P21D | 3.6 |
| P21I | 2.65 |
| P21K | 3.25 |
| P21G | 3.04 |
| P21Q | 3.15 |
| P21S | 2.98 |
| P21N | 2.6 |
| P21Y | 2.62 |
| P21H | 2.46 |
| P21L | 2.33 |
| P21V | 2.52 |
| P21W | 2.9 |
| P21E | 3.97 |
| P21M | 2.56 |
| T19D | 3.75 |
| T19M | 2.73 |
| T19E | 4.03 |
| T19A | 3.35 |

| Variant | protein stability index |
| --- | --- |
| T19P | 2.84 |
| T19F | 1.97 |
| T19K | 2.37 |
| T19I | 3.16 |
| T19G | 3.24 |
| T19R | 2.92 |
| T19N | 2.9 |
| T19C | 2.5 |
| T19H | 3.19 |
| T19W | 2.75 |
| T19V | 2.77 |
| T19Q | 3.16 |
| T19S | 2.84 |
| T19Y | 2.02 |
| T19L | 2.6 |
| S12F | 2.39 |
| S12W | 1.83 |
| S12C | 2.73 |
| S12G | 2.9 |
| S12Q | 2.88 |
| S12L | 2.46 |
| S12Y | 2.39 |
| S12M | 2.87 |
| S12T | 3.14 |
| S12A | 2.99 |

| Variant | protein stability index |
| --- | --- |
| S12V | 3.42 |
| S12D | 3.25 |
| S12N | 3.05 |
| S12P | 3.39 |
| S12I | 2.86 |
| S12R | 2.38 |
| S12H | 2.64 |
| S12K | 2.66 |
| S12E | 3.83 |
| Q14H | 3.47 |
| Q14I | 3.04 |
| Q14A | 3.06 |
| Q14L | 2.87 |
| Q14F | 2.84 |
| Q14Y | 2.4 |
| Q14M | 3.28 |
| Q14T | 2.99 |
| Q14S | 2.64 |
| Q14K | 3.13 |
| Q14C | 2.95 |
| Q14G | 2.58 |
| Q14N | 2.87 |
| Q14V | 3.2 |
| Q14D | 3.93 |
| Q14W | 2.48 |

| Variant | protein stability index |
| --- | --- |
| Q14E | 3.51 |
| Q14P | 2.66 |
| Q14R | 2.76 |
| N16L | 2.81 |
| N16A | 2.51 |
| N16H | 3 |
| N16C | 2.73 |
| N16Y | 2.72 |
| N16I | 3.01 |
| N16M | 2.56 |
| N16D | 3.61 |
| N16E | 3.05 |
| N16G | 2.88 |
| N16F | 2.81 |
| N16R | 2.66 |
| N16Q | 3.37 |
| N16V | 3.13 |
| N16K | 3.29 |
| N16W | 2.11 |
| N16P | 2.6 |
| N16T | 2.8 |
| N16S | 3.19 |

Variants of: B2
Assay: as above
Details: c terminus: a fixed tail appended

| Variant | protein stability index |
| --- | --- |
| R1E | 2.87 |
| R1M | 3.04 |
| R1P | 3.17 |
| R1G | 3.34 |
| R1C | 4.88 |
| R1D | 2.71 |
| R1T | 3.22 |
| R1Q | 2.75 |
| R1F | 1.97 |
| R1N | 2.85 |
| R1A | 2.93 |
| R1W | 2.27 |
| R1I | 2.77 |
| R1L | 2.63 |
| R1S | 3.19 |
| R1K | 3.01 |
| R1V | 2.88 |
| R1H | 3.56 |
| R1Y | 2.2 |
| I2D | 2.43 |
| I2S | 2.75 |

| Variant | protein stability index |
| --- | --- |
| I2A | 2.41 |
| I2N | 3.13 |
| I2M | 2.44 |
| I2C | 2.85 |
| I2L | 2.35 |
| I2K | 2.51 |
| I2R | 2.94 |
| I2E | 2.87 |
| I2P | 3.72 |
| I2G | 2.78 |
| I2T | 1.74 |
| I2W | 2.33 |
| I2Q | 3.57 |
| I2V | 2.29 |
| I2H | 2.38 |
| I2F | 2.5 |
| I2Y | 2.73 |
| T4A | 2.21 |
| T4C | 3.04 |
| T4E | 3.16 |
| T4D | 2.74 |

| Variant | protein stability index |
| --- | --- |
| T4F | 2.42 |
| H3K | 2.46 |
| H3Q | 2.47 |
| H3L | 2.25 |
| H3I | 2.74 |
| H3D | 2.91 |
| H3S | 2.38 |
| H3F | 1.9 |
| H3R | 1.96 |
| H3A | 1.99 |
| H3T | 2.8 |
| H3W | 2.05 |
| H3V | 2.05 |
| H3M | 2.49 |
| H3N | 2.81 |
| H3C | 3.28 |
| H3Y | 2.33 |
| H3E | 3.1 |
| H3P | 2.38 |
| H3G | 3.12 |
